Target: the molecule itself
Assay: crystal structure

B1: MIP-2/CXCL2 (murine macrophage inflammatory protein-2) (natural protein, UniProt P10889 28-100, looked up)
chain: AVVASELRCQCLKTLPRVDFKNIQSLSVTPPGPHCAQTEVIATLKGGQKVCLDPEAPLVQKIIQKILNKGKAN
B1 was tested, and the “stoichiometry N” value was 2.
